Source: article PMC4649164

Target: HIV gp120 (HIV-1)
Assay: SPR

## Griffithsin (from UniProt P84801 1-121) (natural protein)
  Kd: 0.798 nM
  koff: 0.00175 s⁻¹
  kon: 2.19e+06 M⁻¹ s⁻¹
